Source: patent US20180170995A1 (LEVICEPT, published 2018)

Target: TrkB receptor (UniProt Q16620 32-822, limits assumed)
Assay: cell-based or functional assay

Chain of TrkB receptor (Q16620 32-822 limits assumed): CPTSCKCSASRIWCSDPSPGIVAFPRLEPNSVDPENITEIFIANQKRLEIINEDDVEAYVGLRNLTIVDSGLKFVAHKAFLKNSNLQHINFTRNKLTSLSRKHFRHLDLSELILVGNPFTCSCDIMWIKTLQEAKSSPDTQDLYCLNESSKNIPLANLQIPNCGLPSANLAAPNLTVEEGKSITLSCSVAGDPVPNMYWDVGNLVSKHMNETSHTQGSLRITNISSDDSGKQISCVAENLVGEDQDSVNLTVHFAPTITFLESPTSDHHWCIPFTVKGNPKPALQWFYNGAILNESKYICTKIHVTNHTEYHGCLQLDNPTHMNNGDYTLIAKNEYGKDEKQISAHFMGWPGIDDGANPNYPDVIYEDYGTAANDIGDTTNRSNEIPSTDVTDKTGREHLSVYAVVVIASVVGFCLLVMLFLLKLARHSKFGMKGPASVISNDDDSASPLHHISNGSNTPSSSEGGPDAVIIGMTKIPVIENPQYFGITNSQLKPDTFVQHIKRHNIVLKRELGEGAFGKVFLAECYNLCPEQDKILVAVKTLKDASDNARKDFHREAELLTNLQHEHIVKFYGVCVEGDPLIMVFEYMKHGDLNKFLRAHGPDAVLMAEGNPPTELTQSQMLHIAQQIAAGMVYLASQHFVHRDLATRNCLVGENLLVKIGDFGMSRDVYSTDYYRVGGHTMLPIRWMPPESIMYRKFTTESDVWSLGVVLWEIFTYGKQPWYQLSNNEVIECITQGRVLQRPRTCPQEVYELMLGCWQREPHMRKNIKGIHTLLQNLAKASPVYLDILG

| Binder | EC50, NT-4-induced activation of TrkB (luminescence, DiscoverX kit cells) [nM] | EC50, BDNF-induced activation of TrkB (luminescence, DiscoverX kit cells) [nM] |
| --- | --- | --- |
| neurotrophin-4 (NT-4) (ligand, UniProt P34130 81-210, looked up) GVSETAPASRRGELAVCDAVSGWVTDRRTAVDLRGREVEVLGEVPAAGGSPLRQYFFETRCKADNAEEGGPGAGGGGCRGVDRRHWVSECKAKQSYVRALTADAQGRVGWRWIRIDTACVCTLLSRTGRA | 0.012 | – |
| brain-derived neurotrophic factor (BDNF) (ligand, UniProt P23560 129-247, looked up) HSDPARRGELSVCDSISEWVTAADKKTAVDMSGGTVTVLEKVPVSKGQLKQYFYETKCNPMGYTKEGCRGIDKRHWNSQCRTTQSYVRALTMDSKKRIGWRFIRIDTSCVCTLTIKRGR | – | 0.7 |
